Key:
[1] = biological target: His6-EBF2 (purified) (UniProt Q708Y0)
[2] = biological target: EIN2-CEND (co-expressed in Arabidopsis mesophyll protoplasts) (UniProt Q9S814)
Chain of EIN2-CEND (co-expressed in Arabidopsis mesophyll protoplasts) (Q9S814 462-1294): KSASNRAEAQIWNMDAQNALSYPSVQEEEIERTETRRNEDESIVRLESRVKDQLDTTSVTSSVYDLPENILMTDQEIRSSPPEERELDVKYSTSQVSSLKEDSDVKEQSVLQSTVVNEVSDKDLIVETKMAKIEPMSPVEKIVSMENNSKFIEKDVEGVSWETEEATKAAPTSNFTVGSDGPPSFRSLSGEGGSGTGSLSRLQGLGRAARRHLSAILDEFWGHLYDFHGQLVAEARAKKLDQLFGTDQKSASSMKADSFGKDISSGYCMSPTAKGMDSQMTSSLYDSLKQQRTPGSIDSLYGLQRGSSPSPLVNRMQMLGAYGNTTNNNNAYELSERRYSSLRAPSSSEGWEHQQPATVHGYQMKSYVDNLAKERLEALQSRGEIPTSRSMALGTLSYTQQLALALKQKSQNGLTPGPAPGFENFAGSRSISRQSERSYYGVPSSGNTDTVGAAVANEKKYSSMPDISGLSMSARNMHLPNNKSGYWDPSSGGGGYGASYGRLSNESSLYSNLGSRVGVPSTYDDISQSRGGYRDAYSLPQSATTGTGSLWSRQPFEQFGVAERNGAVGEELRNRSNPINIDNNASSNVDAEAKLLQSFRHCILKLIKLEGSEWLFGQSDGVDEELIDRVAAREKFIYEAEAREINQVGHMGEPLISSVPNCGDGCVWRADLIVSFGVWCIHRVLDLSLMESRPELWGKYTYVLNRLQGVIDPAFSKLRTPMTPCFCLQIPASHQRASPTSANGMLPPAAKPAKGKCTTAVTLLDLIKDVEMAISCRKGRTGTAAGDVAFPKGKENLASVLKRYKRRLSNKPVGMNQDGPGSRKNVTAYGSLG

Chain of CTR1-KD^AAA (CTR1 kinase domain with T704A/S707A/S710A, expressed in Arabidopsis mesophyll protoplasts) (chain, as listed by the source T704A S707A S710A): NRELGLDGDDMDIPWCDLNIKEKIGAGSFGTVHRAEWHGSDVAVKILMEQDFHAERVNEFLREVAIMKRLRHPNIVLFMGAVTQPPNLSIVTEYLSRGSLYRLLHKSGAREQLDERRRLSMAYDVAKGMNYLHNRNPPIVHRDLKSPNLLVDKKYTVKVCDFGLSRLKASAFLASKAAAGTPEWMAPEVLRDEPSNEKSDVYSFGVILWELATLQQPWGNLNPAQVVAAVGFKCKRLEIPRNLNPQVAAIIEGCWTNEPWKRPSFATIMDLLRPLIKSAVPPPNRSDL
Chain of His6-EBF2 (purified) (Q708Y0 whole entry): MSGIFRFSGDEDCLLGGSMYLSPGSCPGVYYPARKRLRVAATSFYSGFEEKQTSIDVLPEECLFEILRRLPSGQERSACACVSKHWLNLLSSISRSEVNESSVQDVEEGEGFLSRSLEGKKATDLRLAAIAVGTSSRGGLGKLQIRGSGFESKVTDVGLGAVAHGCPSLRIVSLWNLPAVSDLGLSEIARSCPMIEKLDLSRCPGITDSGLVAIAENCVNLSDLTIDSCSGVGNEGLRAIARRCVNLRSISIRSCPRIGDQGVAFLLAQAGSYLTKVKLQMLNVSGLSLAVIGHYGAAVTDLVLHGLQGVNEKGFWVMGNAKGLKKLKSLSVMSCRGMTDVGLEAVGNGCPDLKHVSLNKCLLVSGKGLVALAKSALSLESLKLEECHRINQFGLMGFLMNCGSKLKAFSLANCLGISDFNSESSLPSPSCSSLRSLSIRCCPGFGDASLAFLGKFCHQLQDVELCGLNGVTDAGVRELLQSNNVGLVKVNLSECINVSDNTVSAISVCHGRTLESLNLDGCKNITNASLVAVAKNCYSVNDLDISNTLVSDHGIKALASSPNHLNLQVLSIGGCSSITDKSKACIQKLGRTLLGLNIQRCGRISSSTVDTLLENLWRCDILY
Chain of CTR1-KD (wild-type CTR1 kinase domain lacking the N-terminal domain, expressed in Arabidopsis mesophyll protoplasts) (chain, as listed by the source): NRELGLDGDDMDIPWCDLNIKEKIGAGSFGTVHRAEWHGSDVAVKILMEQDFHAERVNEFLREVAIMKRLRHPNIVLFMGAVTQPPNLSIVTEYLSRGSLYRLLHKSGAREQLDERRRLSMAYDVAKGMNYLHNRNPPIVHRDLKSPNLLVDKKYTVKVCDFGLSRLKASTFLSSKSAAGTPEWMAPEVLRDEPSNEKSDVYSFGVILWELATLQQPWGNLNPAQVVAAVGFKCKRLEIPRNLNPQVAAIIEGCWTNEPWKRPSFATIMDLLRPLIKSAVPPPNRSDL
Chain of His6-CTR1-KD^WT (purified CTR1 kinase domain, residues 531-821) (chain, as listed by the source): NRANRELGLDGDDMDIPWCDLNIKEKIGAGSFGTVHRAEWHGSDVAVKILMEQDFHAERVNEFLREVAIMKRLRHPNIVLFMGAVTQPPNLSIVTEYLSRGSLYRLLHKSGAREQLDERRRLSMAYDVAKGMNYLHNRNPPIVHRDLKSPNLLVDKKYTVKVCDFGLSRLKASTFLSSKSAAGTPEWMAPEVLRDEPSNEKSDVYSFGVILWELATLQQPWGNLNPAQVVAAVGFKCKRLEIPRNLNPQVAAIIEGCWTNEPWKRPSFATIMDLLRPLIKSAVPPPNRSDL

Substance	in vitro kinase assay ([γ-32P]ATP incorporation, autoradiography) [1]	Phos-tag gel band shift of EIN2-CEND on co-expression in Arabidopsis mesophyll protoplasts [2]
His6-CTR1-KD^WT (purified CTR1 kinase domain, residues 531-821)	in vitro kinase assay demonstrated that CTR1 does not phosphorylate EBF2	
CTR1-KD (wild-type CTR1 kinase domain lacking the N-terminal domain, expressed in Arabidopsis mesophyll protoplasts)		Wild-type CTR1-KD, but not CTR1-KD^AAA, phosphorylated EIN2-CEND when co-expressed in Arabidopsis mesophyll protoplasts
CTR1-KD^AAA (CTR1 kinase domain with T704A/S707A/S710A, expressed in Arabidopsis mesophyll protoplasts)		Wild-type CTR1-KD, but not CTR1-KD^AAA, phosphorylated EIN2-CEND when co-expressed in Arabidopsis mesophyll protoplasts

Reference: patent publication US20240175042
